These results are taken from the supplement of paper PMC10266784.

B1: library; numbered along this chain (parent)
chain: MAAAAAAAAEQQSSNGPVKKSMREKAVERRSVNKEHNSNFKAGYIPIDEDRLHKTGLRGRKGNLAICVIILLFILAVINLIITLVIWAVIRIGPNGCDSMEFHESGLLRFKQVSDMGVIHPLYKSTVGGRRNENLVITGNNQPIVFQQGTTKLSVENNKTSITSDIGMQFFDPRTQNILFSTDYETHEFHLPSGVKSLNVQKASTERITSNATSDLNIKVDGRAIVRGNEGVFIMGKTIEFHMGGNMELKAENSIILNGSVMVSTTRLPSSSSGDQLGSGDWVRYKLCMCADGTLFKVQVTSQNMGCQISDNPCGNTH

The series covers variants of B1. Briefly: SGCB cell-surface expression functional score (HA stain, bin4 vs bin1, normalised to synonymous) (log10 ratio); higher = more cell-surface SGCB (functional). The procedure: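 Deep mutational scan of full-length human SGCB (YFP-SGCB-HA, NNN codon sublibraries A-F) delivered by lentivirus at low MOI into ADG-HEK293 cells stably expressing SGCA, SGCD and SGCG. YFP-positive cells were stained for surface HA on unpermeabilized cells and FACS-sorted into bins. The functional score is log10(frequency in high bin 4 / frequency in low bin 1), normalised per chunk so that synonymous variants have mean 0 and SD 0.5. Scores are the median over codons and over duplicate biological replicates; scores below -0.5 are called non-functional. Scale: negative means deleterious.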
For MAAAAAAAAEQQSSNGPVKKSMREKAVERRSVNKEHNSNFKAGYIPIDEDRLHKGGLRGRKGNLAICVIILLFILAVINLIITLVIWAVIRIGPNGCDSMEFHESGLLRFKQVSDMGVIHPLYKSTVGGRRNENLVITGNNQPIVFQQGTTKLSVENNKTSITSDIGMQFFDPRTQNILFSTDYETHEFHLPSGVKSLNVQKASTERITSNATSDLNIKVDGRAIVRGNEGVFIMGKTIEFHMGGNMELKAENSIILNGSVMVSTTRLPSSSSGDQLGSGDWVRYKLCMCADGTLFKVQVTSQNMGCQISDNPCGNTH [T55G], the “SGCB cell-surface expression functional score (log10)” value turned out to be 0.16. The figure for MAAAAAAAAEQQSSNGPVKKSMREKAVERRSVNKEHNSNFKAGYIPIDEDRLHKNGLRGRKGNLAICVIILLFILAVINLIITLVIWAVIRIGPNGCDSMEFHESGLLRFKQVSDMGVIHPLYKSTVGGRRNENLVITGNNQPIVFQQGTTKLSVENNKTSITSDIGMQFFDPRTQNILFSTDYETHEFHLPSGVKSLNVQKASTERITSNATSDLNIKVDGRAIVRGNEGVFIMGKTIEFHMGGNMELKAENSIILNGSVMVSTTRLPSSSSGDQLGSGDWVRYKLCMCADGTLFKVQVTSQNMGCQISDNPCGNTH [T55N] is 0.75; for MAAAAAAAAEQQSSNGPVKKSMREKAVERRSVNKEHNSNFKAGYIPIDEDRLHKIGLRGRKGNLAICVIILLFILAVINLIITLVIWAVIRIGPNGCDSMEFHESGLLRFKQVSDMGVIHPLYKSTVGGRRNENLVITGNNQPIVFQQGTTKLSVENNKTSITSDIGMQFFDPRTQNILFSTDYETHEFHLPSGVKSLNVQKASTERITSNATSDLNIKVDGRAIVRGNEGVFIMGKTIEFHMGGNMELKAENSIILNGSVMVSTTRLPSSSSGDQLGSGDWVRYKLCMCADGTLFKVQVTSQNMGCQISDNPCGNTH [T55I] it is 0.07. The figure for MAAAAAAAAEQQSSNGPVKKSMREKAVERRSVNKEHNSNFKAGYIPIDEDRLHKEGLRGRKGNLAICVIILLFILAVINLIITLVIWAVIRIGPNGCDSMEFHESGLLRFKQVSDMGVIHPLYKSTVGGRRNENLVITGNNQPIVFQQGTTKLSVENNKTSITSDIGMQFFDPRTQNILFSTDYETHEFHLPSGVKSLNVQKASTERITSNATSDLNIKVDGRAIVRGNEGVFIMGKTIEFHMGGNMELKAENSIILNGSVMVSTTRLPSSSSGDQLGSGDWVRYKLCMCADGTLFKVQVTSQNMGCQISDNPCGNTH [T55E] is -0.18; for MAAAAAAAAEQQSSNGPVKKSMREKAVERRSVNKEHNSNFKAGYIPIDEDRLHKLGLRGRKGNLAICVIILLFILAVINLIITLVIWAVIRIGPNGCDSMEFHESGLLRFKQVSDMGVIHPLYKSTVGGRRNENLVITGNNQPIVFQQGTTKLSVENNKTSITSDIGMQFFDPRTQNILFSTDYETHEFHLPSGVKSLNVQKASTERITSNATSDLNIKVDGRAIVRGNEGVFIMGKTIEFHMGGNMELKAENSIILNGSVMVSTTRLPSSSSGDQLGSGDWVRYKLCMCADGTLFKVQVTSQNMGCQISDNPCGNTH [T55L] it is 0.08; for MAAAAAAAAEQQSSNGPVKKSMREKAVERRSVNKEHNSNFKAGYIPIDEDRLHKMGLRGRKGNLAICVIILLFILAVINLIITLVIWAVIRIGPNGCDSMEFHESGLLRFKQVSDMGVIHPLYKSTVGGRRNENLVITGNNQPIVFQQGTTKLSVENNKTSITSDIGMQFFDPRTQNILFSTDYETHEFHLPSGVKSLNVQKASTERITSNATSDLNIKVDGRAIVRGNEGVFIMGKTIEFHMGGNMELKAENSIILNGSVMVSTTRLPSSSSGDQLGSGDWVRYKLCMCADGTLFKVQVTSQNMGCQISDNPCGNTH [T55M] it is 0.6.

MAAAAAAAAEQQSSNGPVKKSMREKAVERRSVNKEHNSNFKAGYIPIDEDRLHKDGLRGRKGNLAICVIILLFILAVINLIITLVIWAVIRIGPNGCDSMEFHESGLLRFKQVSDMGVIHPLYKSTVGGRRNENLVITGNNQPIVFQQGTTKLSVENNKTSITSDIGMQFFDPRTQNILFSTDYETHEFHLPSGVKSLNVQKASTERITSNATSDLNIKVDGRAIVRGNEGVFIMGKTIEFHMGGNMELKAENSIILNGSVMVSTTRLPSSSSGDQLGSGDWVRYKLCMCADGTLFKVQVTSQNMGCQISDNPCGNTH [T55D]: the “SGCB cell-surface expression functional score (log10)” value was determined as 0.39. On to MAAAAAAAAEQQSSNGPVKKSMREKAVERRSVNKEHNSNFKAGYIPIDEDRLHKHGLRGRKGNLAICVIILLFILAVINLIITLVIWAVIRIGPNGCDSMEFHESGLLRFKQVSDMGVIHPLYKSTVGGRRNENLVITGNNQPIVFQQGTTKLSVENNKTSITSDIGMQFFDPRTQNILFSTDYETHEFHLPSGVKSLNVQKASTERITSNATSDLNIKVDGRAIVRGNEGVFIMGKTIEFHMGGNMELKAENSIILNGSVMVSTTRLPSSSSGDQLGSGDWVRYKLCMCADGTLFKVQVTSQNMGCQISDNPCGNTH [T55H], for which the “SGCB cell-surface expression functional score (log10)” value amounted to 0.01. The figure for MAAAAAAAAEQQSSNGPVKKSMREKAVERRSVNKEHNSNFKAGYIPIDEDRLHKQGLRGRKGNLAICVIILLFILAVINLIITLVIWAVIRIGPNGCDSMEFHESGLLRFKQVSDMGVIHPLYKSTVGGRRNENLVITGNNQPIVFQQGTTKLSVENNKTSITSDIGMQFFDPRTQNILFSTDYETHEFHLPSGVKSLNVQKASTERITSNATSDLNIKVDGRAIVRGNEGVFIMGKTIEFHMGGNMELKAENSIILNGSVMVSTTRLPSSSSGDQLGSGDWVRYKLCMCADGTLFKVQVTSQNMGCQISDNPCGNTH [T55Q] is -0.62; for MAAAAAAAAEQQSSNGPVKKSMREKAVERRSVNKEHNSNFKAGYIPIDEDRLHKPGLRGRKGNLAICVIILLFILAVINLIITLVIWAVIRIGPNGCDSMEFHESGLLRFKQVSDMGVIHPLYKSTVGGRRNENLVITGNNQPIVFQQGTTKLSVENNKTSITSDIGMQFFDPRTQNILFSTDYETHEFHLPSGVKSLNVQKASTERITSNATSDLNIKVDGRAIVRGNEGVFIMGKTIEFHMGGNMELKAENSIILNGSVMVSTTRLPSSSSGDQLGSGDWVRYKLCMCADGTLFKVQVTSQNMGCQISDNPCGNTH [T55P] it is 0.19.
